Laboratory results taken from patent publication US20140212423A1 (AbbVie / Abbott, published 2014).
Blank lines part the entries; values can stand above or below the binder they belong to.

Assays:
[1] = target: T1, mouse Transferrin Receptor overexpressed on Hek 293 cells (mouse, UniProt Q62351 1-763); test: cell-based MSD-ECL binding on Hek293 cells overexpressing mouse TfR
T1 construct: whole, on cells; also called Hek293/mTfR; 293/mTFR
Description: (§1) Meso-scale Discovery (MSD) Electrochemiluminescesnce (ECL) assays to screen for antibodies or DVDs that bind a desired target antigen expressed on the cell surface were performed as follows: Hek 293 cells overexpressing mouse Transferin Receptor were added onto MSD 96-well plates (MSD Cat# L11 XB-3, lot#2290-EA) which were blocked using blocking buffer (30% FBS Serum (Hyclone) in PBS) at 37° C. for 1 hr. After incubating at RT for 30 min with mild agitation, plates were washed with DPBS 3 times and Abs/DVDs (10,000 ng/ml) were added. After incubating for 1 hr at RT, plates were washed 3 times with DPBS and 25 ul of Goat anti human Sulfo TAG (MSD Cat# R32AC-, Lot# W001162) at 1 μg/ml is added. Following a 1 h incubation at RT for 1 hr, plates are washed and MSD read buffer is added before reading on MSD SECTOR Imager 6000. EC50 values are obtained using Xlfit4 software package

[2] = target: T1, mouse Transferrin Receptor …; test: MSD-ECL assay, column headed IC50 (values match the cell-based mTfR binding EC50 of Table 7)
[3] = target: T1, mouse Transferrin Receptor …; test: mTFR binding cell-based assay
Description: as §1

[4] = target: T1, mouse Transferrin Receptor …; test: TfR binding EC50 column of Table 8 (cell-based assay; repeats Table 7)
Description: as §1

rmTfR (119-763) = target: T2, rmTfR (119-763) (mouse, UniProt Q62351 119-763); test: Biacore SPR, antibody captured via anti-human Fc, rmTfR (119-763) in solution
T2 construct: range 119-763; also called recombinant mouse transferrin receptor 119-763
T2 sequence (Q62351 119-763): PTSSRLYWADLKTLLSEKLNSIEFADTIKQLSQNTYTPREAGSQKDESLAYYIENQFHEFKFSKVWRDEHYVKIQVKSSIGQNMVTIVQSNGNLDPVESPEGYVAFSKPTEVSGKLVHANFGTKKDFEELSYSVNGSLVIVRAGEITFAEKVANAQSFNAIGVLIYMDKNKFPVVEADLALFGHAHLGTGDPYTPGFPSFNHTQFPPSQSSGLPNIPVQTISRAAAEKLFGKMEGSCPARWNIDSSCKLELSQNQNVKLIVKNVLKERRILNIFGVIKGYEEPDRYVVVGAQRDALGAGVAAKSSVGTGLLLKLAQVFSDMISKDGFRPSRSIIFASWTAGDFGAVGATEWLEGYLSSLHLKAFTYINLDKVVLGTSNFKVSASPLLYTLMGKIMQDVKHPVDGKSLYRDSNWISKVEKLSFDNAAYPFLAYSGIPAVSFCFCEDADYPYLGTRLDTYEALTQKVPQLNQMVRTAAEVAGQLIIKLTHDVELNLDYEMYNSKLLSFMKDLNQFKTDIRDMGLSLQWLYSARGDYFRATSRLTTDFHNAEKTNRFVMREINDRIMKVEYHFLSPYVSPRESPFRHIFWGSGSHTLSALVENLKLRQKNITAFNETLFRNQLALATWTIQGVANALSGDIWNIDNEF
Description: The BIACORE assay (Biacore, Inc, Piscataway, N.J.) was used to determine the affinity of antibodies or DVD-Ig™ with kinetic measurements of on-rate and off-rate constants. Binding of antibodies or DVD-Ig™ to a target antigen (for example, a purified recombinant target antigen) was determined by surface plasmon resonance-based measurements with a Biacore® 1000 or 3000 instrument (Biacore® AB, Uppsala, Sweden) using running HBS-EP (10 mM HEPES [pH 7.4], 150 mM NaCl, 3 mM EDTA, and 0.005% surfactant P20) at 25° C. All chemicals were obtained from Biacore® AB (Uppsala, Sweden) or otherwise from a different source as described in the text. For example, approximately 5000 RU of goat anti-human IgG, (Fcγ), fragment specific polyclonal antibody (Pierce Biotechnology Inc, Rockford, Ill.) diluted in 10 mM sodium acetate (pH 4.5) was directly immobilized across a CM5 research grade biosensor chip using a standard amine coupling kit according to manufacturer's instructions and procedures at 25 μg/ml. Unreacted moieties on the biosensor surface are blocked with ethanolamine. Modified carboxymethyl dextran surface in flowcell 2 and 4 is used as a reaction surface. Unmodified carboxymethyl dextran without goat anti-human IgG in flow cell 1 and 3 is used as the reference surface. For kinetic analysis, rate equations derived from the 1:1 Langmuir binding model were fitted simultaneously to association and dissociation phases of all eight injections (using global fit analysis) with the use of Biaevaluation 4.0.1 software. Purified antibodies or DVD-Ig™ were diluted in HEPES-buffered saline for capture across goat anti-human IgG specific reaction surfaces. […] The association and dissociation rate constants, kon (M⁻¹s⁻¹) and koff (s⁻¹) are determined under a continuous flow rate of 25 μl/min. […] The equilibrium dissociation constant (M) of the reaction between antibodies or DVD-Ig™s and the target antigen is then calculated from the kinetic rate constants by the following formula: KD=koff/kon. Binding is recorded as a function of time and kinetic rate constants are calculated.

rmTfR (123-763) [5] = target: T3, rmTfR (123-763) (mouse, UniProt Q62351 123-763); test: Biacore SPR, antibody captured via anti-human Fc, rmTfR (123-763) in solution
T3 construct: range 123-763; also called recombinant mouse transferrin receptor 123-763
T3 sequence (Q62351 123-763): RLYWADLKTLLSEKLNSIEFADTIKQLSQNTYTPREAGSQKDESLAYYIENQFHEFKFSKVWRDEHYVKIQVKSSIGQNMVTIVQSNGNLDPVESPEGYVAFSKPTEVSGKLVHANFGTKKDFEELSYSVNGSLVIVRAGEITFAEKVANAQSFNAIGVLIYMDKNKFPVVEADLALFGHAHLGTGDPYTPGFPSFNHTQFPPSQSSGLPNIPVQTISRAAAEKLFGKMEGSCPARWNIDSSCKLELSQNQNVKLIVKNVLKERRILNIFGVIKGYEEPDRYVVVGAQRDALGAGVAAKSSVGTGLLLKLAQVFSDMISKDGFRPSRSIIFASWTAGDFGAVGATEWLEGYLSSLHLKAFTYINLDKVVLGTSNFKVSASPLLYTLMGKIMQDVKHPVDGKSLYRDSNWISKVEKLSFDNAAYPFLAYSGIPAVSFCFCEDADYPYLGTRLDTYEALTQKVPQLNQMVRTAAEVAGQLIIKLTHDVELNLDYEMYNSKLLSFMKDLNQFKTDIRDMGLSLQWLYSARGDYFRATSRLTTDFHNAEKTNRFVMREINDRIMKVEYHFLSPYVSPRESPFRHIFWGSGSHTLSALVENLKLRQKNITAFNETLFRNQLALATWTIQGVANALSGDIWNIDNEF
Description: (§2) The BIACORE assay (Biacore, Inc, Piscataway, N.J.) was used to determine the affinity of antibodies or DVD-Ig™ with kinetic measurements of on-rate and off-rate constants. Binding of antibodies or DVD-Ig™ to a target antigen (for example, a purified recombinant target antigen) was determined by surface plasmon resonance-based measurements with a Biacore® 1000 or 3000 instrument (Biacore® AB, Uppsala, Sweden) using running HBS-EP (10 mM HEPES [pH 7.4], 150 mM NaCl, 3 mM EDTA, and 0.005% surfactant P20) at 25° C. All chemicals were obtained from Biacore® AB (Uppsala, Sweden) or otherwise from a different source as described in the text. For example, approximately 5000 RU of goat anti-human IgG, (Fcγ), fragment specific polyclonal antibody (Pierce Biotechnology Inc, Rockford, Ill.) diluted in 10 mM sodium acetate (pH 4.5) was directly immobilized across a CM5 research grade biosensor chip using a standard amine coupling kit according to manufacturer's instructions and procedures at 25 μg/ml. Unreacted moieties on the biosensor surface are blocked with ethanolamine. Modified carboxymethyl dextran surface in flowcell 2 and 4 is used as a reaction surface. Unmodified carboxymethyl dextran without goat anti-human IgG in flow cell 1 and 3 is used as the reference surface. For kinetic analysis, rate equations derived from the 1:1 Langmuir binding model were fitted simultaneously to association and dissociation phases of all eight injections (using global fit analysis) with the use of Biaevaluation 4.0.1 software. Purified antibodies or DVD-Ig™ were diluted in HEPES-buffered saline for capture across goat anti-human IgG specific reaction surfaces. Antibodies or DVD-Ig™ to be captured as a ligand (25 μg/ml) were injected over reaction matrices at a flow rate of 5 μl/min. The association and dissociation rate constants, kon (M⁻¹s⁻¹) and koff (s⁻¹) are determined under a continuous flow rate of 25 μl/min. Rate constants are derived by making kinetic binding measurements at different antigen concentrations ranging from 10-200 nM. The equilibrium dissociation constant (M) of the reaction between antibodies or DVD-Ig™s and the target antigen is then calculated from the kinetic rate constants by the following formula: KD=koff/kon. Binding is recorded as a function of time and kinetic rate constants are calculated.

rmTfR (123-763) [6] = target: T3, rmTfR (123-763); test: Biacore SPR, DVD-Ig captured via anti-human Fc, rmTfR (123-763) in solution
Description: as §2

T1 sequence (Q62351 whole entry): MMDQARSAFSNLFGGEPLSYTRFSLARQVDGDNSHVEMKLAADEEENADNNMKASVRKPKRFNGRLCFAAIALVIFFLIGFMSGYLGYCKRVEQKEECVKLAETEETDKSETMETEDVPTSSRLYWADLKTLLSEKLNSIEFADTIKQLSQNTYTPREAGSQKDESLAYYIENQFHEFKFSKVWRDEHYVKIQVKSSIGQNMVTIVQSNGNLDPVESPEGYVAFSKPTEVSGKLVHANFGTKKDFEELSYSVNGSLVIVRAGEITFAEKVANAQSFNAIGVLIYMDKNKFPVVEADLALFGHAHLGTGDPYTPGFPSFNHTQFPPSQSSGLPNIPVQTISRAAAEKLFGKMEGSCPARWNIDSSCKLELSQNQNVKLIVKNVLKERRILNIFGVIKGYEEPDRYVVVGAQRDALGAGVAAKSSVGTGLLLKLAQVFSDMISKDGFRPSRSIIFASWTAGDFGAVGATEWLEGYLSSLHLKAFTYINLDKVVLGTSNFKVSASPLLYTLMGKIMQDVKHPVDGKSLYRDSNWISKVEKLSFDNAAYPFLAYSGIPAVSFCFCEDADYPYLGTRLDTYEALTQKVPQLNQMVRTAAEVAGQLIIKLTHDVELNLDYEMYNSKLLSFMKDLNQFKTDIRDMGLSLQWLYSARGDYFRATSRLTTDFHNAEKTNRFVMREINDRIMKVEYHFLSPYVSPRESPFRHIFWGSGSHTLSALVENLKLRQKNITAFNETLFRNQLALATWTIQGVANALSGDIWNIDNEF

EC50 [1]: 0.1 nM
IC50 [2]: 0.1 nM
B1: DVD2668 (bispecific antibody)
VH: EVQLVESGGGLVQPGNSLTLSCVASGFTFSNYGMHWIRQAPKKGLEWIAMIYYDSSKMNYADTVKGRFTISRDNSKNTLYLEMNSLRSEDTAMYYCAVPTSHYVVDVWGQGVSVTVSSASTKGPSVFPLAPEVQLLESGGGLVQPGGSLRLSCAASGFTFSNYGMSWVRQAPGKGLEWVASIRSGGGRTYYSDNVKGRFTISRDNSKNTLYLQMNSLRAEDTAVYYCVRYDHYSGSSDYWGQGTLVTVSS
VL: DIQMTQSPASLSASLEEIVTITCQASQDIGNWLAWYQQKPGKSPQLLIYGATSLADGVPSRFSGSRSGTQFSLKISRVQVEDIGIYYCLQAYNTPWTFGGGTKLELKRTVAAPDVVMTQSPLSLPVTPGEPASISCKSSQSLLDSDGKTYLNWLLQKPGQSPQRLIYLVSKLDSGVPDRFSGSGSGTDFTLKISRVEAEDVGVYYCWQGTHFPRTFGQGTKVEIKR
notes: DVD-Ig, outer AB221 (TfR), inner AB043 (APP/Abeta), HG-long/LK-short; dual variable regions only; constant regions not assigned; also called TfRLSAbeta DVD2668

EC50 [3]: 0.09 nM
EC50 [1]: 0.09 nM
Kd (rmTfR (123-763) [5]): 3.8 nM
koff (rmTfR (123-763) [5]): 8.39e-05 s⁻¹
kon (rmTfR (123-763) [5]): 22000 M⁻¹ s⁻¹
B4: AB403 (antibody, V domains shown)
VH: EVQLVESGGGLVQPGGSLRLSCAASGFTFSNYGMHWIRQAPGKGLEWIAMIYYDSSKMNYADTVKGRFTISRDNAKNSLYLQMNSLRAEDTAVYYCAVPTSHYVVDVWGQGTTVTVSS
VL: EIVMTQSPATLSVSPGERATLSCQASQDIGNWLAWYQQKPGQSPRLLIYGATSLADGVPARFSGSRSGTEFTLTISSLQSEDFAVYYCLQAYNTPWTFGGGTKVEIKR
notes: humanized variant of AB221; constant regions not assigned; also called TfR(AB403)

EC50 [3]: 0.06 nM
EC50 [1]: 0.06 nM
Kd (rmTfR (123-763) [5]): 3.7 nM
koff (rmTfR (123-763) [5]): 6.12e-05 s⁻¹
kon (rmTfR (123-763) [5]): 16400 M⁻¹ s⁻¹
B5: AB402 (antibody, V domains shown)
VH: B4 VH
VL: AIQMTQSPSSLSASVGDRVTITCQASQDIGNWLAWYQQKPGKSPKLLIYGATSLADGVPSRFSGSRSGTDFTLTISSLQPEDFATYYCLQAYNTPWTFGGGTKVEIKR
notes: humanized variant of AB221; also called TfR(AB402)

EC50 [1]: 3.2 nM
Kd (rmTfR (123-763) [6]): 78 nM
koff (rmTfR (123-763) [6]): 0.000771 s⁻¹
kon (rmTfR (123-763) [6]): 9870 M⁻¹ s⁻¹
B7: DVD2365 (bispecific antibody)
VH: QVQLVQSGAEVKKPGASVKVSCKASGFTFSNYGMHWIRQAPGQGLEWIAMIYYDSSKMNYADTVKGRFTITRDNSTNTLYMELSSLRSEDTAVYYCAVPTSHYVVDVWGQGTTVTVSSASTKGPEVQLLESGGGLVQPGGSLRLSCAASGFTFSNYGMSWVRQAPGKGLEWVASIRSGGGRTYYSDNVKGRFTISRDNSKNTLYLQMNSLRAEDTAVYYCVRYDHYSGSSDYWGQGTLVTVSS
VL: EIVMTQSPATLSVSPGERATLSCQASQDIGNWLAWYQQKPGQSPRLLIYGATSLADGVPARFSGSRSGTEFTLTISSLQSEDFAVYYCLQAYNTPWTFGGGTKVEIKRTVAAPDVVMTQSPLSLPVTPGEPASISCKSSQSLLDSDGKTYLNWLLQKPGQSPQRLIYLVSKLDSGVPDRFSGSGSGTDFTLKISRVEAEDVGVYYCWQGTHFPRTFGQGTKVEIKR
notes: DVD-Ig, outer AB405 (TfR), inner AB043 (APP), HG-short/LK-short; dual variable regions only; constant regions not assigned

The next lines start with the binder.

B2: DVD2671 (bispecific antibody)
VH: EVQLLESGGGLVQPGGSLRLSCAASGFTFSNYGMSWVRQAPGKGLEWVASIRSGGGRTYYSDNVKGRFTISRDNSKNTLYLQMNSLRAEDTAVYYCVRYDHYSGSSDYWGQGTLVTVSSASTKGPSVFPLAPEVQLVESGGGLVQPGNSLTLSCVASGFTFSNYGMHWIRQAPKKGLEWIAMIYYDSSKMNYADTVKGRFTISRDNSKNTLYLEMNSLRSEDTAMYYCAVPTSHYVVDVWGQGVSVTVSS
VL: DVVMTQSPLSLPVTPGEPASISCKSSQSLLDSDGKTYLNWLLQKPGQSPQRLIYLVSKLDSGVPDRFSGSGSGTDFTLKISRVEAEDVGVYYCWQGTHFPRTFGQGTKVEIKRTVAAPDIQMTQSPASLSASLEEIVTITCQASQDIGNWLAWYQQKPGKSPQLLIYGATSLADGVPSRFSGSRSGTQFSLKISRVQVEDIGIYYCLQAYNTPWTFGGGTKLELK
notes: DVD-Ig; also called AbetaLSTfR DVD2671
EC50 [1]: 1.2 nM
IC50 [2]: 1.2 nM

B3: AB221 (antibody, V domains shown)
VH: EVQLVESGGGLVQPGNSLTLSCVASGFTFSNYGMHWIRQAPKKGLEWIAMIYYDSSKMNYADTVKGRFTISRDNSKNTLYLEMNSLRSEDTAMYYCAVPTSHYVVDVWGQGVSVTVSS
VL: DIQMTQSPASLSASLEEIVTITCQASQDIGNWLAWYQQKPGKSPQLLIYGATSLADGVPSRFSGSRSGTQFSLKISRVQVEDIGIYYCLQAYNTPWTFGGGTKLELKR
notes: the assays detect/capture with anti-human IgG reagents; constant regions not assigned; also called TfR(AB221); anti-mouse TfR(AB221) antibody
EC50 [3]: 0.12 nM
EC50 [1]: 0.1 nM
EC50 [4]: 0.1 nM
Kd (rmTfR (119-763)): 5 nM
koff (rmTfR (119-763)): 0.000181 s⁻¹
kon (rmTfR (119-763)): 39400 M⁻¹ s⁻¹

B6: AB405 (antibody, V domains shown)
VH: QVQLVQSGAEVKKPGASVKVSCKASGFTFSNYGMHWIRQAPGQGLEWIAMIYYDSSKMNYADTVKGRFTITRDNSTNTLYMELSSLRSEDTAVYYCAVPTSHYVVDVWGQGTTVTVSS
VL: B4 VL
notes: constant regions not assigned; also called TfR(AB405)
EC50 [3]: 13.6 nM
EC50 [1]: 13.6 nM
EC50 [4]: 13.6 nM
binding result (rmTfR (123-763) [5]): no binding (tested: antigen 10-200 nM)

B8: DVD2358 (bispecific antibody)
VH: EVQLVESGGGLVQPGGSLRLSCAASGFTFSNYGMHWIRQAPGKGLEWIAMIYYDSSKMNYADTVKGRFTISRDNAKNSLYLQMNSLRAEDTAVYYCAVPTSHYVVDVWGQGTTVTVSSASTKGPEVQLLESGGGLVQPGGSLRLSCAASGFTFSNYGMSWVRQAPGKGLEWVASIRSGGGRTYYSDNVKGRFTISRDNSKNTLYLQMNSLRAEDTAVYYCVRYDHYSGSSDYWGQGTLVTVSS
VL: AIQMTQSPSSLSASVGDRVTITCQASQDIGNWLAWYQQKPGKSPKLLIYGATSLADGVPSRFSGSRSGTDFTLTISSLQPEDFATYYCLQAYNTPWTFGGGTKVEIKRTVAAPDVVMTQSPLSLPVTPGEPASISCKSSQSLLDSDGKTYLNWLLQKPGQSPQRLIYLVSKLDSGVPDRFSGSGSGTDFTLKISRVEAEDVGVYYCWQGTHFPRTFGQGTKVEIKR
notes: DVD-Ig, outer AB402 (TfR), inner AB043 (APP), HG-short/LK-short; dual variable regions only; constant regions not assigned
EC50 [1]: 0.1 nM
Kd (rmTfR (123-763) [6]): 1.3 nM
koff (rmTfR (123-763) [6]): 4.06e-05 s⁻¹
kon (rmTfR (123-763) [6]): 31300 M⁻¹ s⁻¹

B9: DVD2360 (bispecific antibody)
VH: B8 VH
VL: B7 VL
notes: DVD-Ig, outer AB403 (TfR), inner AB043 (APP), HG-short/LK-short; dual variable regions only; constant regions not assigned
EC50 [1]: 0.15 nM
Kd (rmTfR (123-763) [6]): 1.7 nM
koff (rmTfR (123-763) [6]): 4.8e-05 s⁻¹
kon (rmTfR (123-763) [6]): 28000 M⁻¹ s⁻¹
